Test results as given in doi:10.1101/2022.12.25.521893 (bioRxiv, 2022).
Ends that are not written are not given here.

B1: endogenous E. coli lipoprotein YedD (natural protein)
chain: CAEVENYNNVVKTPAPDWLAGYWQTKGPQRALVSPEAIGSLIVTKEGDTLDCRQWQRVIAVPGKLTLMSDDLTNVTVKRELYEVERDGNTIEYDGMTMERVDRPTAECAAALDKAPLPTPLP
B2: endogenous Escherichia coli lipoprotein YifL (natural protein)
chain: CGLKGPLYFPPADKNAPPPTKPVETQTQSTVPDKNDRATGDGPSQVNY
modifications: also: three acyl chains (R1, R2, R3) on N-terminal Cys

Molecular target: LptDE complex from Shigella flexneri with a hexahistidine tag on LptE (Shigella flexneri, UniProt Q83SQ0;Q0T6Q1)
Experiment: native MS

Sequence of LptDE complex from Shigella flexneri with a hexahistidine tag on LptE (Q83SQ0 25-784, chain 1 of 2): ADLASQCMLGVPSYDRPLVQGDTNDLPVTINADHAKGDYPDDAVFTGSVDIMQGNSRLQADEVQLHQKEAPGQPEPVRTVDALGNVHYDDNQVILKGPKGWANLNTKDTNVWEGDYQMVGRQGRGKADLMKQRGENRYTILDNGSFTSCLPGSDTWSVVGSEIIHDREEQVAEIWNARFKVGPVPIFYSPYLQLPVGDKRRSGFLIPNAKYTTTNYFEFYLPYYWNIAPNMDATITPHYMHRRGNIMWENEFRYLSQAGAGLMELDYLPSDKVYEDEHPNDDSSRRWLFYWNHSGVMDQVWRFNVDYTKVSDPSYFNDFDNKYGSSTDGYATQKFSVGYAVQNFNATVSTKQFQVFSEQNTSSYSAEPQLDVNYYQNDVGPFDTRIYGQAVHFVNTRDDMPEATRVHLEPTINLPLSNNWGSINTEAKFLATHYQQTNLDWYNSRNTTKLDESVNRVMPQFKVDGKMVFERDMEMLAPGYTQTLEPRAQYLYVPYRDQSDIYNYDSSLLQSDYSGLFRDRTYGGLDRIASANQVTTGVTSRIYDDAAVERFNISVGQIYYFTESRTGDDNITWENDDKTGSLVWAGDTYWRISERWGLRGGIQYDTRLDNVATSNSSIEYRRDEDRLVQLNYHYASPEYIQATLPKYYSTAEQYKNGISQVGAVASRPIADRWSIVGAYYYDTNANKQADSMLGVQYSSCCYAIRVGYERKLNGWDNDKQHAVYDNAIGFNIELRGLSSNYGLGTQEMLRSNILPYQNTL
Sequence of LptDE complex from Shigella flexneri with a hexahistidine tag on LptE (Q0T6Q1 19-193, chain 2 of 2): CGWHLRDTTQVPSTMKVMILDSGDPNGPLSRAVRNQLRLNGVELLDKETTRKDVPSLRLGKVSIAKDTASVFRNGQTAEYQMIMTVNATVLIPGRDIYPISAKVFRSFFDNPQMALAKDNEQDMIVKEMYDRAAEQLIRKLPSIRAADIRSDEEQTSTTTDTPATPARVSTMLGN

Binder | stoichiometry N
B1 | 1
B2 | 1
